Source: patent US20110046056A1, “APOA-1 PEPTIDE MIMETICS” (priority 2007, published 2011)
Where a SMILES comes first, the peptide text is derived from it. Bridges are numbered along the chain shown (N, C = ends). Where no end group is shown, it is not given here. [ ]: non-standard residue; d: D form. dGly(6-heptenyl) = C=CCCCCC[C@@H](N)C(=O)O; Ala(5-hexenyl) = C=CCCCCC[C@H](N)C(=O)O; dNle(6-vinyl) = C=CCCCC[C@@H](N)C(=O)O; Gla = N[C@@H](CC(C(=O)O)C(=O)O)C(=O)O; R5H = not defined here; Aib = CC(C)(N)C(=O)O

Assays:
[1] = target: T1, ABCA1 cholesterol transporter protein (Mus musculus, UniProt P41233); assay: ABCA1-dependent cholesterol efflux from RAW mouse macrophage cells (in vitro RCT assay); format: cell-based; conditions: for EC50: read-out: EC50 in the cholesterol efflux assay (RCT in vitro assay)
T1 construct: endogenous in cells
T1 sequence (P41233 whole entry): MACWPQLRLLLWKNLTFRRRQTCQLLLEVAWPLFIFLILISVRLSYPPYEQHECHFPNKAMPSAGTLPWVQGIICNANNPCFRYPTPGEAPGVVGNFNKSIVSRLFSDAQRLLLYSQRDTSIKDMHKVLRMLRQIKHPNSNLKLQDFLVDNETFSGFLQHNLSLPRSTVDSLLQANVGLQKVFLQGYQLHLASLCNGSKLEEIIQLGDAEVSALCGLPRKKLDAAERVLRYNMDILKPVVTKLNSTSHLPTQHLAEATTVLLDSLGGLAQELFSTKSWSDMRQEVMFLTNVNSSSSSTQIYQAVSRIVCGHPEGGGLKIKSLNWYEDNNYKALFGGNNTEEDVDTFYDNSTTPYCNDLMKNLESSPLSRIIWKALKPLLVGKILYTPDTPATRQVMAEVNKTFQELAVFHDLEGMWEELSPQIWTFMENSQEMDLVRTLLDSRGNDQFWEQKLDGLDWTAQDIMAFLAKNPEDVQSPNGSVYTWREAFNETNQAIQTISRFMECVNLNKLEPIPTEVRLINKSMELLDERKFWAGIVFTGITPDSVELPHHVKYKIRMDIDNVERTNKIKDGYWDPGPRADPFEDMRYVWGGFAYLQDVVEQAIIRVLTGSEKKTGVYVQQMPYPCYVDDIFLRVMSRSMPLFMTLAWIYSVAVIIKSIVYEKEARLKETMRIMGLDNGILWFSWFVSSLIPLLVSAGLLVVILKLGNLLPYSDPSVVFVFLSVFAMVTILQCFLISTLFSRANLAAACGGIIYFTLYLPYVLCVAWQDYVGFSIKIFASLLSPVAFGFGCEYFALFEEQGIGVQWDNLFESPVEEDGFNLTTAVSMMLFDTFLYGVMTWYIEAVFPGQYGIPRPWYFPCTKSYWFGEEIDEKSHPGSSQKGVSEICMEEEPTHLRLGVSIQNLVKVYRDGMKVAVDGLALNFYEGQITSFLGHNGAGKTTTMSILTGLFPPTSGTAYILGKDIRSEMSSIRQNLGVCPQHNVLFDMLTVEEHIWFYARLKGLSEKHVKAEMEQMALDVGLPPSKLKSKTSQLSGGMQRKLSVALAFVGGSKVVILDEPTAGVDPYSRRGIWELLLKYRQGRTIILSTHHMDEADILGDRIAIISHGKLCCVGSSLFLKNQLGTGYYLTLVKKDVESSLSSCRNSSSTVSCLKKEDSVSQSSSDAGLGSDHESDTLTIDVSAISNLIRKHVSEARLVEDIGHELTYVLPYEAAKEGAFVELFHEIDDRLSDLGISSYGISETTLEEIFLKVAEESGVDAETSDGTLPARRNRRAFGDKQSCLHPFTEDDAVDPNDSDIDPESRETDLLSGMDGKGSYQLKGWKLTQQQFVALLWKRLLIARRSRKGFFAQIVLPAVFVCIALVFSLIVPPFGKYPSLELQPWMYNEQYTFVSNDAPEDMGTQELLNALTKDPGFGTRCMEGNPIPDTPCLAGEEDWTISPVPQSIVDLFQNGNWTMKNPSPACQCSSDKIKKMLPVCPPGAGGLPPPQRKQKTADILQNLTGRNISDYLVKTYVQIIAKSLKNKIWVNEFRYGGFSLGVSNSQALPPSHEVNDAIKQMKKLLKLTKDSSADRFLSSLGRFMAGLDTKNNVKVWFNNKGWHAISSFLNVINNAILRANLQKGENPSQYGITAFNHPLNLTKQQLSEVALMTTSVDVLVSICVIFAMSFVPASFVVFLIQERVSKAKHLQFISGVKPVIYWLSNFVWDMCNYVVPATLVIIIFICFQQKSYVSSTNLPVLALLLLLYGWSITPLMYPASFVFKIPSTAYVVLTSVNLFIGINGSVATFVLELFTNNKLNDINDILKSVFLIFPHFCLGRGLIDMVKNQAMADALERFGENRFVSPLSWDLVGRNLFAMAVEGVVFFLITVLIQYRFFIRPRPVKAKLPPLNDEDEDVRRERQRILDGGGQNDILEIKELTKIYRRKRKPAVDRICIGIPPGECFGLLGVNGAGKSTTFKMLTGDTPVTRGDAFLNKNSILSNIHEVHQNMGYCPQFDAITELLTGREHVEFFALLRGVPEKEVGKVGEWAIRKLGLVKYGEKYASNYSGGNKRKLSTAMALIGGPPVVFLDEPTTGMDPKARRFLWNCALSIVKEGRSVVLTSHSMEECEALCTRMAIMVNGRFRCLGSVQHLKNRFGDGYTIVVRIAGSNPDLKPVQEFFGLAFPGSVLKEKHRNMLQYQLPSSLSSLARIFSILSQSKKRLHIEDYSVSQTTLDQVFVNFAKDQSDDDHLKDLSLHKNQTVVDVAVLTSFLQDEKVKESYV
Excerpt: Peptides of the present invention were designed based on amphipathic properties and their abilities to solubilize phospholipids and promote cholesterol efflux. The most direct functional measurement of efficacy for the ApoA-1 peptide mimetic is its capacity to improve the efflux of cholesterol from the cell. The RAW and J774 cell lines are reliable mouse macrophage cell lines frequently used in the art for this purpose. […] The RAW cell line is preferred and recited in the description below.
In the present assay, the RAW cells are plated at 1.5×10^5 cells/200 μl/well/48-well plate in DMEM complete medium (with 10% FBS from INVITROGEN and 1% penicillin-streptomycin-glutamine from GIBCO) and ^3H-cholesterol at 5 μCi/ml. After 24 hours incubation in a moist 37° C. atmosphere with 5% CO2, the spent medium is removed, the cells are washed once with serum-free DMEM (0.1% fatty acid free bovine serum albumin replaces the FBS), and fresh serum-free medium (200 μl) is added to each well. After overnight incubation in the serum-free medium to allow the cellular cholesterol pools to equilibrate, the spent medium is removed, and fresh serum-free medium is added with/without CPT-cAMP (150 μM final). Eight-point serial titrations of the peptide/s being tested are added at this time (duplicate titrations in plain medium without cAMP and duplicate titrations in medium containing cAMP).
After 24 hours incubation in the various conditions, the medium is harvested from each well and 50 μl aliquots are counted. The cells are then lysed by adding 500 μl of HEPES/Triton lysis buffer to each well. The lysis is facilitated by freezing and thawing once. After thawing, the lysates are mixed well and 50 μl aliquots are counted.
The percent efflux of each peptide in each medium condition (±cAMP) is calculated by dividing the total counts in the medium by the sum of the total counts in the medium and lysate. The percent efflux seen with plain medium is subtracted from the percent efflux seen with the cAMP-stimulated efflux to yield the reported ABCA1-stimulated values. EC50 values are determined using PRISM software (Table 2).

[2] = target: ATP-binding cassette transporter A1 (ABCA1) (mouse, UniProt P41233 1-2261); assay: cell-based or functional assay
ATP-binding cassette transporter A1 (ABCA1), sequence (P41233 whole entry): as above

“6 (Ac-PVLDEFREKLNE[Aib]LEALKQKLK; not fully specified (C-terminus)) [compound 6]” was tested, and the “ABCA1-DEPENDENT CHOLESTEROL EFFLUX, % at one concentration” value ([1]; AT 100 µM / @ 100) was 6% AT 100 UM.

With “7 (Ac-PVLDEFREKLNE[Aib]LE[Aib]LKQKLK; not fully specified (C-terminus)) [compound 7]” the “ABCA1-DEPENDENT CHOLESTEROL EFFLUX, % at one concentration” value ([1]; AT 150 µM) was 5% AT 150 UM.

“11 (Ac-PVLDEFREKLNE[R5H]LEA[R5H]KQKLK; staple 13-17; reading uncertain) [compound 11]” was tested, and the “ABCA1-DEPENDENT CHOLESTEROL EFFLUX, % at one concentration” value ([1]; AT 30 µM / @ 30) was under 2% AT 30 UM.

With “22 (Ac-PVLDEFREKLNEELEALKQXLK; not fully specified (residue 20, C-terminus); printed as PVLDEFREKLNEELEALKQR7HLK) [compound 22]” the “ABCA1-DEPENDENT CHOLESTEROL EFFLUX, % at one concentration” value ([1]; AT 100 µM / @ 100) was 1.4% @ 100.

`CCCCCCCCCCCCC(NC(=O)[C@H](CCC(=O)O)NC(=O)[C@H](CC(=O)O)NC(=O)[C@H](CC(C)C)NC(=O)[C@@H](NC(=O)[C@@H]1CCCN1C(C)=O)C(C)C)C(=O)N[C@@H](CCCNC(=N)N)C(=O)N[C@@H](CCC(=O)O)C(=O)N[C@@H](CCCCN)C(=O)N[C@@H](CC(C)C)C(=O)N[C@@H](CC(N)=O)C(=O)N[C@@H](CCC(=O)O)C(=O)N[C@@H](CCC(=O)O)C(=O)N[C@@H](CC(C)C)C(=O)N[C@@H](CCC(=O)O)C(=O)N[C@@H](C)C(=O)N[C@@H](CC(C)C)C(=O)N[C@@H](CCCCN)C(=O)N[C@@H](CCC(N)=O)C(=O)N[C@@H](CCCCN)C(=O)N[C@@H](CC(C)C)C(=O)N[C@@H](CCCCN)C(N)=O` (single isomer, unassigned) [SEQ ID NO 37, PVLDE-(RS)12H3-REKLNEELEALKQKLK] was tested, and the EC50 [1] was 0.1 to 0.4 µM.

Work on `CCCCCCCCCCCCC(NC(=O)[C@H](CCC(=O)O)NC(=O)[C@H](CC(N)=O)NC(=O)[C@H](CC(C)C)NC(=O)[C@H](CCCCN)NC(=O)[C@H](CCC(=O)O)NC(=O)[C@H](CCCNC(=N)N)NC(=O)[C@H](Cc1ccccc1)NC(=O)[C@H](CCC(=O)O)NC(=O)[C@H](CC(=O)O)NC(=O)[C@H](CC(C)C)NC(=O)[C@@H](NC(=O)[C@@H]1CCCN1C(C)=O)C(C)C)C(=O)N[C@@H](CC(C)C)C(=O)N[C@@H](CCC(=O)O)C(=O)N[C@@H](C)C(=O)N[C@@H](CC(C)C)C(=O)N[C@@H](CCCCN)C(=O)N[C@@H](CCC(N)=O)C(=O)N[C@@H](CCCCN)C(=O)N[C@@H](CC(C)C)C(=O)N[C@@H](CCCCN)C(N)=O` (single isomer, unassigned) [SEQ ID NO 38, PVLDEFREKLNE-(RS)12H3-LEALKQKLK] yielded an EC50 [1] of 0.2 to 0.4 µM.

`CC(=O)N1CCC[C@H]1C(=O)N[C@H](C(=O)N[C@@H](CC(C)C)C(=O)N[C@@H](CC(=O)O)C(=O)N[C@@H](CCC(=O)O)C(=O)N[C@@H](Cc1ccccc1)C(=O)N[C@@H](CCCNC(=N)N)C(=O)N[C@@H](CCC(=O)O)C(=O)N[C@@H](CCCCN)C(=O)N[C@@H](CC(C)C)C(=O)N[C@@H](CC(N)=O)C(=O)N[C@@H](CCC(=O)O)C(=O)NC(C)(C)C(=O)N[C@@H](CC(C)C)C(=O)N[C@@H](CC(C(=O)O)C(=O)O)C(=O)N[C@@H](C)C(=O)N[C@@H](CC(C)C)C(=O)N[C@@H](CCCCN)C(=O)N[C@@H](CCC(N)=O)C(=O)N[C@@H](CCCCN)C(=O)N[C@@H](CC(C)C)C(=O)N[C@@H](CCCCN)C(N)=O)C(C)C` [SEQ ID NO 4, PVLDEFREKLNEAIBLGLAALKQKLK] (Ac-PVLDEFREKLNE[Aib]L[Gla]ALKQKLK-NH2; C-terminus assumed) gave an EC50 [1] of 41 µM.

For `C=CCCCCC[C@H](NC(=O)[C@H](CCC(=O)O)NC(=O)[C@H](CC(N)=O)NC(=O)[C@H](CC(C)C)NC(=O)[C@H](CCCCN)NC(=O)[C@H](CCC(=O)O)NC(=O)[C@H](CCCN=C(N)N)NC(=O)[C@@H](CCCCC=C)NC(=O)[C@H](CCC(=O)O)NC(=O)[C@H](CC(=O)O)NC(=O)[C@H](CC(C)C)NC(=O)[C@@H](NC(=O)[C@@H]1CCCN1C(C)=O)C(C)C)C(=O)N[C@@H](CC(C)C)C(=O)N[C@@H](CCC(=O)O)C(=O)N[C@@H](C)C(=O)N[C@@H](CC(C)C)C(=O)N[C@@H](CCCCN)C(=O)N[C@@H](CCC(N)=O)C(=O)N[C@@H](CCCCN)C(=O)N[C@@H](CC(C)C)C(=O)N[C@@H](CCCCN)C(N)=O` [SEQ ID NO 13, PVLDER6HREKLNES7HLEALKQKLK] (Ac-PVLDE[dNle(6-vinyl)]REKLNE[Ala(5-hexenyl)]LEALKQKLK-NH2), the EC50 [1] was 0.4 µM.

With `C=CCCCC[C@@H](NC(=O)[C@H](CCC(=O)O)NC(=O)[C@H](CC(N)=O)NC(=O)[C@H](CC(C)C)NC(=O)[C@H](CCCCN)NC(=O)[C@H](CCC(=O)O)NC(=O)[C@H](CCCN=C(N)N)NC(=O)[C@H](Cc1ccccc1)NC(=O)[C@H](CCC(=O)O)NC(=O)[C@H](CC(=O)O)NC(=O)[C@H](CC(C)C)NC(=O)[C@@H](NC(=O)[C@@H]1CCCN1C(C)=O)C(C)C)C(=O)N[C@@H](CC(C)C)C(=O)N[C@@H](CCC(=O)O)C(=O)N[C@@H](C)C(=O)N[C@@H](CC(C)C)C(=O)N[C@@H](CCCCN)C(=O)N[C@@H](CCC(N)=O)C(=O)N[C@@H](CCCCN)C(=O)N[C@@H](CC(C)C)C(=O)N[C@@H](CCCCN)C(N)=O` [SEQ ID NO 18, PVLDEFREKLNER6HLEALKQKLK] (Ac-PVLDEFREKLNE[dNle(6-vinyl)]LEALKQKLK-NH2) the EC50 [1] was 18 µM.

Molecule `C=CCCCCC[C@@H](NC(=O)[C@H](CCC(=O)O)NC(=O)[C@H](CC(N)=O)NC(=O)[C@H](CC(C)C)NC(=O)[C@H](CCCCN)NC(=O)[C@H](CCC(=O)O)NC(=O)[C@H](CCCN=C(N)N)NC(=O)[C@H](Cc1ccccc1)NC(=O)[C@H](CCC(=O)O)NC(=O)[C@H](CC(=O)O)NC(=O)[C@H](CC(C)C)NC(=O)[C@@H](NC(=O)[C@@H]1CCCN1C(C)=O)C(C)C)C(=O)N[C@@H](CC(C)C)C(=O)N[C@@H](CCC(=O)O)C(=O)N[C@@H](C)C(=O)N[C@@H](CC(C)C)C(=O)N[C@@H](CCCCN)C(=O)N[C@@H](CCC(N)=O)C(=O)N[C@@H](CCCCN)C(=O)N[C@@H](CC(C)C)C(=O)N[C@@H](CCCCN)C(N)=O` [SEQ ID NO 21, PVLDEFREKLNER7HLEALKQKLK] (Ac-PVLDEFREKLNE[dGly(6-heptenyl)]LEALKQKLK-NH2) has an EC50 [1] of 7.2 µM.

For Ac-PVLDEFRE[R5H]LNE[R5H]LEALKQKLK (reading uncertain) [R5H [K9-E13]R5H OPEN], the “ABCA1-dependent cholesterol efflux EC50” value [2] was 46 µM.

In the case of Ac-PVLDEFREKLNE[R5H]LEA[R5H]KQKLK (reading uncertain) [R5H [E13-L17]R5H OPEN], the “ABCA1-dependent cholesterol efflux, % at 30 uM” value [2] is reported as under 3%.

In the case of Ac-[dP][dV][dL][dD][dE][dF][dR][dE][dK][dL][dN][dE][dGly(6-heptenyl)][dL][dE][dA][dL][dK][dQ][dK][dL][dK] [D-CONS[R7H^13]], the “ABCA1-dependent cholesterol efflux EC50” value [2] is reported as 1.1 µM.

For Ac-[dP][dV][dL][dD][dE][dGly(6-heptenyl)][dR][dE][dK][dL][dN][dE][dE][dL][dE][dA][dL][dK][dQ][dK][dL][dK] (not fully specified (C-terminus)) [D-CONS[R7H^6]], the “ABCA1-dependent cholesterol efflux, % at 100 uM” value [2] was 19%.
